# Assay results from article PMC2734569, “Functional mapping of the fission yeast DNA polymerase δ B-subunit Cdc1 by site-directed and random pentapeptide insertion mutagenesis” (BMC Molecular Biology, 2009).
# T1: Cdc1-A5 (Schizosaccharomyces pombe, UniProt P87324 1-462, Asn328Ala)
# T1 construct: Cdc1, S. pombe, point mutant; source: yeast two-hybrid fusion, in S. cerevisiae CTY10-5d
# T1 sequence (looked up): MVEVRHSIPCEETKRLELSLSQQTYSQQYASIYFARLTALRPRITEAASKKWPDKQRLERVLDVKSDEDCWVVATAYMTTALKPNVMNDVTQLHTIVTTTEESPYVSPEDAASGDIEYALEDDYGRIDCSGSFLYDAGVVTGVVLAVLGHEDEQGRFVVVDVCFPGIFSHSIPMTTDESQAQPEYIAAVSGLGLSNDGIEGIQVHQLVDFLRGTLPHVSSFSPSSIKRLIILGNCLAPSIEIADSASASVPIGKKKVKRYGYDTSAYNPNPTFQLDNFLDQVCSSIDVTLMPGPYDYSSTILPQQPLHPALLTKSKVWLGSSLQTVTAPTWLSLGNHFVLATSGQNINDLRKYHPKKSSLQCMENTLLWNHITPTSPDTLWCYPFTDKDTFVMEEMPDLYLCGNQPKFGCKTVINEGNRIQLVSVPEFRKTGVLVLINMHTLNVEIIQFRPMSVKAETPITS
# T2: Cdc1-A8 (Schizosaccharomyces pombe, UniProt P87324 1-462, Pro374Ala)
# T2 construct: Cdc1, S. pombe, point mutant; source: yeast two-hybrid fusion, in S. cerevisiae CTY10-5d
# T2 sequence (looked up): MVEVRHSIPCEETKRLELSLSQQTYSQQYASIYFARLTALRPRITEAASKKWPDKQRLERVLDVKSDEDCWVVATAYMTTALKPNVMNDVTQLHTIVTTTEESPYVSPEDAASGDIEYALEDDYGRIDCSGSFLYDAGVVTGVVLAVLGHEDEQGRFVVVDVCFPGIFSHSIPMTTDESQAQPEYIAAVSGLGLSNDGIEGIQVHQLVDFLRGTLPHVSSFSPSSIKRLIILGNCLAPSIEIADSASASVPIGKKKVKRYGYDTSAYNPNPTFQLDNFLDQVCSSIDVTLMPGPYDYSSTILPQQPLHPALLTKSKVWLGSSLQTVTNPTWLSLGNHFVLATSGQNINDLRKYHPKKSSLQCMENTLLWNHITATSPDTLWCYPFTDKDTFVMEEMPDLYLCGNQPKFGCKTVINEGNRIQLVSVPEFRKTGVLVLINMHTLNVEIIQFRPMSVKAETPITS
# T3: Cdc1-A6 (Schizosaccharomyces pombe, UniProt P87324 1-462, Pro329Ala)
# T3 construct: Cdc1, S. pombe, point mutant; source: yeast two-hybrid fusion, in S. cerevisiae CTY10-5d
# T3 sequence (looked up): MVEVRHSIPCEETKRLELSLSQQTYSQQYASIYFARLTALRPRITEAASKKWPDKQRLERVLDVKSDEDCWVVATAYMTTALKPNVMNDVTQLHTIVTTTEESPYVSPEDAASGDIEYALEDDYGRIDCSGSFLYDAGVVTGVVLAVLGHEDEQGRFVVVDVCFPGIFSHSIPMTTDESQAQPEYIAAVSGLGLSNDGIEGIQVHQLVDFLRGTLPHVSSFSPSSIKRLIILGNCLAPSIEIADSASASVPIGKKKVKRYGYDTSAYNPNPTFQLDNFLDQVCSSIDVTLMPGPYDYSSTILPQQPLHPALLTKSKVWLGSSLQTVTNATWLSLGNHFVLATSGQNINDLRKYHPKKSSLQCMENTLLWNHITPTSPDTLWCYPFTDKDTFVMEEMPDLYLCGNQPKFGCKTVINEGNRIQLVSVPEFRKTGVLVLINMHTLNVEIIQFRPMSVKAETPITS
# T4: Cdc1-A1 (Schizosaccharomyces pombe, UniProt P87324 1-462, Pro292Ala)
# T4 construct: Cdc1, S. pombe, point mutant; source: yeast two-hybrid fusion, in S. cerevisiae CTY10-5d
# T4 sequence (looked up): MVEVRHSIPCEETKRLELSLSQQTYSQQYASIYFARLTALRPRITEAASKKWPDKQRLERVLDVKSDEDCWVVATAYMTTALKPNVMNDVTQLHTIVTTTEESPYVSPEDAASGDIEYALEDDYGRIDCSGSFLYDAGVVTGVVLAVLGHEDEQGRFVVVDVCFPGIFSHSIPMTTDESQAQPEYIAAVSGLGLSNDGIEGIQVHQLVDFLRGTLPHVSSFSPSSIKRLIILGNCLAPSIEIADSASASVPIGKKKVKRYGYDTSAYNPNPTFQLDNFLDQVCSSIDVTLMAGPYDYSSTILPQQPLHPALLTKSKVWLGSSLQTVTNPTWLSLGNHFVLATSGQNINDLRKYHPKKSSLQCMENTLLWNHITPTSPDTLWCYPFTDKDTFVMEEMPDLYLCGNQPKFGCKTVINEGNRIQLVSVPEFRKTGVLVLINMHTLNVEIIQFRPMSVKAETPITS
# Experiments:
# Test in all cases: two-hybrid; LexA-Cdc1 bait (pBTM116 or pBTM116BN) with Gal4 activation domain-Cdc27 prey (pGAD2F-Cdc27) in S. cerevisiae CTY10-5d; ONPG liquid culture beta-galactosidase assay, mean of triplicates, as percent of wild-type Cdc1
# Details in all cases: partners not purified
# Cdc1-A5 = molecular target: T1, Cdc1-A5
# Cdc1-A8 = molecular target: T2, Cdc1-A8
# Cdc1-A6 = molecular target: T3, Cdc1-A6
# Cdc1-A1 = molecular target: T4, Cdc1-A1
binder,measurement,setting,value
"Cdc27 (fission yeast DNA polymerase delta C-subunit) (natural protein, Schizosaccharomyces pombe, UniProt P30261 1-372, looked up, DNA polymerase delta C-subunit Cdc27, S. pombe; prey plasmid pGAD2F-Cdc27; also called pGAD2F-Cdc27; source: yeast two-hybrid fusion, in S. cerevisiae CTY10-5d) MEEWRNFLDIKVINESSLVTVDNLSLQLDISSEKAQEYLNMFYQGNDFLYPIYLIHGQPIDDEINLEIDEESQPISNFPVLQYILCDKSSLQEKQSRLKSGYKTVIFALSSAPLSDFDELLPAVYEIREKDVLYKKEDADKYGFIFNENSVPRVLKKAPSTHSPQLSVPSKTSTIDKTDTRSTEKTKGKDIFSNARNQKGNSSRKNKKAPLENHKEKEPLLPKEEKLSEQAKRERDDLKNIMQLEDESVSTTSVHDSEDDNLDSNNFQLEIGTEAKSAAPDEPQEIIKSVSGGKRRGKRKVKKYATTKDEEGFLVTKEEEVWESFSEDENISTGTSNVVRNKPTTVNIATKKKNTAQSKPQQKSIMSFFGKK","two-hybrid beta-galactosidase activity, % of wild-type Cdc1",Cdc1-A5,37%
same,"two-hybrid beta-galactosidase activity, % of wild-type Cdc1",Cdc1-A8,8%
same,"two-hybrid beta-galactosidase activity, % of wild-type Cdc1",Cdc1-A6,6%
same,"two-hybrid beta-galactosidase activity, % of wild-type Cdc1",Cdc1-A1,44%
